Assay results reported in patent publication US20220153824A1 (University of Pennsylvania, published 2022).

Experiments:
human C5a = target: T1, human C5a (human, UniProt P01031 678-751); assay: ELISA, plate coated with human C5a
T1 construct: domain: C5a; Purified human C5a (Hycult) in ELISA; recombinant human C5a in the Transwell assay; also called free human C5a; recombinant human complement C5a
T1 sequence (looked up): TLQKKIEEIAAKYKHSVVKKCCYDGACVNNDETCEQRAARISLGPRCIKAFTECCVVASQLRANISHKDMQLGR
Method: Polystyrene microtiter plates were coated with purified human C5 or C5a (50 ng/well, Hycult) in PBS at 37° C. for 1 hr. After aspirating the C5 or C5a solution, wells were blocked with PBS containing 1% BSA in PBS at room temperature for 1 hour. Wells without C5 or C5a coating served as background controls. Different concentration of 7A12 mAb or control anti-C5 mAb or chimeric 7A12, 50 μl/well in blocking solution, were added to the wells. Following 1 hour incubation at room temperature, the wells were extensively washed with PBST. Human C5 or C5a-bound mAb was detected by the addition of anti-mouse IgG HRP 1:4000 dilution in blocking solution, which was allowed to incubate for 1 hour at RT. After washing with PBST, the plate was developed with HRP substrate for 6-10 min. The reaction was stopped with 2N H2SO4 and plate was read at 450 nm in a micro plate reader.
(§1) An ELISA plate was coated with human C5a or mouse C5a. After incubation with serially diluted 7A12 or the control anti-C5 mAb, bound mAb was detected by HRP-conjugated anti-mouse IgG. […] Since mAb 7A12 reacts with the whole C5 protein (as shown in FIG. 1), it can be concluded that mAb 7A12 binds both the C5a moiety of native human C5 and free human C5a. On the other hand, no binding of the control anti-C5 mAb to human C5a was seen, as depicted in FIG. 3B.

mouse C5a = target: T2, mouse C5a (mouse, UniProt P06684 679-755); assay: ELISA, plate coated with mouse C5a
T2 construct: domain: C5a; also called purified mouse C5a
T2 sequence (looked up): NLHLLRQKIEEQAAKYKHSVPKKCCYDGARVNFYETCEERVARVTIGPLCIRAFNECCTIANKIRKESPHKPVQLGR
Method: as §1

B1: monoclonal anti-C5a antibody designated mAb 7A12 (antibody, V domains shown)
VH: QVQLQQSDAELVKPGASVKISCKVSGYTFTDHIIHWMNQRPEQGLEWIGYIYPRDGNTNYNENFKGKATLTADKSSSTAYMQLNSLTSEDSAVYFCARERNLEYFDYWGQGTTLTVSS
VL: DIVLTQSPASLAVSLGQRATISCKASQSVDYDGDNYMNWYQQKPGQPPKLLIYAASNLDSGIPARFSGSGSGTDFTLNIHPVEEEDAATYYCQQSNEDPYTFGGGTKLEIKR
notes: also called 7A12 mAb
- binding result (human C5a): binds
- binding result (mouse C5a): no binding
